Reference: publication PMC4278837, “A Cyclic Peptidic Serine Protease Inhibitor: Increasing Affinity by Increasing Peptide Flexibility” (PLoS ONE, 2014)
Bridge positions count the residues as written; N and C are the ends. Ends that are not written are not given here.

Legend:
Assay in all cases: enzyme inhibition (steady state, chromogenic substrate S-2444); about 2 nM enzyme (purified or conditioned medium of transfected cells) pre-incubated 15 min with varied peptide in HBS (10 mM HEPES pH 7.4, 140 mM NaCl) with 0.1% BSA at 37°C; substrate about KM; fit for competitive inhibition; highest peptide concentration 400 µM
muPA-K41A (murine) = molecular target: muPA-K41A (murine)
muPA-K143A (murine) = molecular target: muPA-K143A (murine)
muPA-S190A (murine) = molecular target: muPA-S190A (murine)
muPA-Y99A (murine) = molecular target: muPA-Y99A (murine)
muPA-V213T (murine) = molecular target: muPA-V213T (murine)

Binder | Ki (muPA-K41A (murine)) [µM] | Ki (muPA-K143A (murine)) [µM] | Ki (muPA-S190A (murine)) [µM] | Ki (muPA-Y99A (murine)) [µM] | Ki (muPA-V213T (murine)) [µM]
CPAYSRYLDC (disulfide 1-10 (inferred)) [mupain-1] | 4.29 | 4.88 | 1.6 | 26 | 0.246
CPAYSRYLAC (disulfide 1-10 (inferred)) [Mupain-1 D9A] | 0.27 | 4.34 | 3.02 | 27.2 | 0.373
